In PMC6719858, “Mitochondrial single-stranded DNA binding protein novel de novo SSBP1 mutation in a child with single large-scale mtDNA deletion (SLSMD) clinically manifesting as Pearson, Kearns-Sayre, and Leigh syndromes” (PLoS ONE, 2019):
Substitutions are numbered along the chain they refer to. Names may count otherwise.

How the values were obtained:
SSBP1 p.E27K = target: T1, SSBP1 p.E27K (human, UniProt Q04837 17-148, E27K); assay: fluorescence anisotropy; 5 mM MgCl2; apparent Kd, protein as tetramer; 20 nM DNA; quadratic fit; plateau anisotropy about 1.4-fold higher than WT; 30 mM HEPES-KOH pH 7.6, 50 mM KCl, 2 mM DTT, 5 mM MgCl2, 20 nM FAM-oligonucleotide, 37 C; conditions: protein: recombinant; chain copies: 4; label: 3' FAM (fluorescein); single strand
T1 sequence: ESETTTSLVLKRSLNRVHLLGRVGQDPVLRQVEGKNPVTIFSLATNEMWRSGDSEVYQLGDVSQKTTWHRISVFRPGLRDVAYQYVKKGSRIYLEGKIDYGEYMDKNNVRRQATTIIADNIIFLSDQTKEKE

SSBP1 WT (mtSSB) = target: T2, SSBP1 WT (mtSSB) (human, UniProt Q04837 17-148); assay: fluorescence anisotropy; 5 mM MgCl2; apparent Kd, protein as tetramer; 20 nM DNA; quadratic fit; 30 mM HEPES-KOH pH 7.6, 50 mM KCl, 2 mM DTT, 5 mM MgCl2, 20 nM FAM-oligonucleotide, 37 C; conditions: protein: recombinant; chain copies: 4; label: 3' FAM (fluorescein); single strand
T2 sequence: T1 sequence with K11E

[1] = target: the molecule itself; assay: SEC; Superdex 200 10/300 GL, AKTA FPLC, Storage Buffer (30 mM HEPES-KOH pH 7.6, 250 mM KCl, 0.25 mM EDTA, 2 mM dithiothreitol, 10% glycerol); purified recombinant protein; single peak read as tetramer

In the case of AATGCTATCACTATTCGTAGACTTGACCACACCTTGTCAGCTCACGCTCC (ssDNA) [FAM-labeled 50 nt ssDNA], the Kd (SSBP1 p.E27K) is reported as 9.3 nM and the Kd (SSBP1 WT (mtSSB)) is reported as 2.3 nM.

B1: wild-type human mitochondrial single-stranded DNA-binding protein (SSBP1) (natural protein, UniProt Q04837 17-148, looked up)
chain: T1 sequence with K11E
notes: No tag is mentioned; also called WT SSBP1; HmtSSB; source: E. coli BL21(DE3), purified (Affi-Gel Blue, MonoQ, Superdex 200)
In the case of B1, the “stoichiometry N” value [1] is reported as 4.

B2: p.E27K human mitochondrial single-stranded DNA-binding protein (SSBP1) (natural protein, UniProt Q04837 17-148, looked up)
chain: T1 sequence
notes: Homotetramer of four mutant chains; The variant was found de novo in a patient; No tag is mentioned; also called p.E27K SSBP1; E27K SSBP1; source: E. coli BL21(DE3), purified (Affi-Gel Blue, MonoQ, Superdex 200)
B2 was tested, and the “stoichiometry N” value [1] was 4.
